Measurements reported in article PMC8191301 (The Journal of Biological Chemistry, 2021).
Read-outs that look alike come from different tables or passages of the source. No end group written: not given here.

Assays:
[1] = biological target: hPCNA (Homo sapiens, UniProt P12004); conditions: cited from earlier work
[2] = biological target: T1, human Proliferating Cell Nuclear Antigen (hPCNA) (human, UniProt P12004); assay: SPR
[3] = biological target: T1, human Proliferating Cell Nuclear …; assay: SPR; remark: listed apart in the source

T1 sequence (P12004 1-259): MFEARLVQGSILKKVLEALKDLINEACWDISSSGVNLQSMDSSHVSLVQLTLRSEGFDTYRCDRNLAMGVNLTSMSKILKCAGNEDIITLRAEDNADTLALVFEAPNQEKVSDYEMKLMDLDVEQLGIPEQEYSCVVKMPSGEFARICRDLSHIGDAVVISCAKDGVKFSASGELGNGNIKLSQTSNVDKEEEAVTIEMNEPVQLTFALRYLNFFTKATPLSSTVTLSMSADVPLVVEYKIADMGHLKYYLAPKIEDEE
Sequence of hPCNA (P12004 whole entry): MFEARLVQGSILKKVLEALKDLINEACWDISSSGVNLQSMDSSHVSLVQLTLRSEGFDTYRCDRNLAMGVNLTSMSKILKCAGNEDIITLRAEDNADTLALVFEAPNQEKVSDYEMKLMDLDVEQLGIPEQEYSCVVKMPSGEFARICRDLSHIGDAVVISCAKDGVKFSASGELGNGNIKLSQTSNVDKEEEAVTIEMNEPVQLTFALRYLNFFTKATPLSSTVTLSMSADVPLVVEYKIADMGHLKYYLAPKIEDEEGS

## Tyr151Phe^P8–modified p21 peptide: literature p21 (residues 139–160) peptide with Tyr151Phe modification (GRKRRQTSMTDFFHSKRRLIFS; UniProt P38936 139-160, looked up, variant Y151F) [reference compound]
[1]; isothermal calorimetry, ref [22]
  fold decrease in binding affinity compared with the analogous native peptide (residues 139–160): 3 fold

## p21: cell-cycle regulator protein, highest affinity hPCNA-interacting protein known
[1]; p21 protein binding hPCNA, ref [13], [14], [15]
  Kd: 2.5 to 90 nM

## KRRQTRITEYFHSKR-NH2 (designed binder) [p21μ–RD2]
[2]
  Kd: 1.12 nM

## KRRQKKITDYFHSKR-NH2 [p21μ–Pogo]
[3]
  Kd: 8.82 nM

## KRRMQTLESFFHSKR-NH2 [p21μ–pol η]
[3]
  Kd: 2540 nM

## KRRQTSMTDHYHSKR-NH2 [p21μ–F150H]
[2]
  Kd: 159 nM

## KRRQTSMEDFYHSKR-NH2 [p21μ–T148E]
[2]
  fold lower affinity than p21μ: ~6 fold

## KRRQTSMEEFYHSKR-NH2 [p21μ–TD148/149EE]
[2]
  fold lower affinity than p21μ: 4 fold

## KRRQRRMTDFYHSKR-NH2 [p21μ–TS145/146RR]
[2]
  Kd: 1.83 nM

## KRRQKSMTDFYHSKR-NH2 [p21μ–T145K]
[2]
  fold decrease in affinity relative to p21μ: 8 fold

## KRRQRSMTDFYHSKR-NH2 [p21μ–T145R]
[2]
  fold decrease in affinity relative to p21μ: 7 fold

## KRRQKRMTDFYHSKR-NH2 [p21μ–TS145/146KR]
[2]
  Kd: 37 nM

## KRRQTSMTDYFHSKR-NH2 [p21μ–FY150/151YF]
[2]
  Kd: 2.18 nM

## KRRQTSITDFYHSKR-NH2 [p21μ–M147I]
[2]
  Kd: 11.1 nM

## KRRDTSMTDFYHSKR-NH2 [p21μ–Q144D]
[2]
  Kd: 714 nM

## KRRNTSMTDFYHSKR-NH2 [p21μ–Q144N]
[2]
  Kd: 772 nM

## KRRQTSMDEFYHSKR-NH2 [p21μ–TD148/149DE]
[2]
  fold lower affinity than p21μ: 28 fold

## KRRQRKMTDFYHSKR-NH2 [p21μ–TS145/146RK]
[2]
  Kd: 17.3 nM

## KRRQRRVTDFFHSKR-NH2 [p21μ–Cdt1]
[3]
  Kd: 8.76 nM
